Data as given in patent US20080280346A1 (published 2008).

Molecular target: T1, α-amylase
T1 construct: Coated on ELISA plates at 200 µg/ml in PBS
Experiment: ELISA, plate coated with α-amylase, dimer compared with monomeric VamyHlyA

B1: VamyZHlyA (VHH)
VHH: QVQLVESWGGSVQAGGSLRLSCTAPGFTSNSCRMDWYRQAAGKQREWVSSISTDGRTSYADSVKGRFTISKDKAKDTVYLQMNSLKPEDTAIYYCAVRTNGYRPQSHEFRYWGPGTQVTVSS
modifications: Non-covalent homodimer through the GCN4 leucine zipper; one monomer chain is given.
notes: also called dimeric VHH-HlyA polypeptide; VHH-ZEHlyA hybrid
- fold increase in functional affinity (avidity) against the monomeric form: 10 fold
